The text below walks through data of patent US20250059285A1 (ARGENX, published 2025).

Assay [1] deals with T1, human Gal10-His (human, UniProt Q05315 2-142, limits assumed).
T1 construct: also called hGal10-His; human Gal10-His tagged; not shown: His tag
T1 sequence: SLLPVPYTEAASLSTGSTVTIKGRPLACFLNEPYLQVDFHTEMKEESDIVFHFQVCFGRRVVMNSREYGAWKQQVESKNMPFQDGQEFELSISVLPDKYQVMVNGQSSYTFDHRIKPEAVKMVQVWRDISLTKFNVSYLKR
The assay is described as follows: SPR Biacore 3000, hFab on captured human Gal10-His. From the text: For this purpose, two approaches were used. In the first, two concentrations of the selected clones were applied on cynomolgus (WGS isoform) Gal10-His capture on a CM5 chip coated with a monoclonal anti-His antibody. The second approach involved a serial dilution that was applied on human or cynomolgus (WGS isoform) Gal10-His in the same set-up.
Further characterization of the cynomolgus cross-reactivity of these clones highlighted g24F02_N53A and g23H09.

Assay [2] has as its target T1, human Gal10-His. The assay is described as follows: summary of periplasmic extract screening (BLI or SPR).
Assay [3] has as its target T1, human Gal10-His. The assay is described as follows: SPR slope against calibrators on captured Gal10-His; T0 sample.
Assay [4] deals with T1, human Gal10-His. The assay is described as follows: SPR against T0 reference; sample 4 weeks at 5 C, then nebulized. As for the experimental part:
The functional active concentration of the candidates was then assessed by SPR on a Biacore 3000 instrument (FIG. 4). All samples were evaluated with methods meeting the standard qualification criteria. Aliquots were tested at predefined test concentrations against titration curves from reference samples (T0, −80° C. storage) and in the presence of quality control (QC) samples covering a range of 70-130% relative activity (% RA) towards the reference material.
comparison/reference ⁽¹⁾ samples correspond to aliquots kept at +37° C. for 4 weeks ⁽²⁾ samples correspond to aliquots kept at +5° C. for 4 weeks prior to nebulization. In brief, samples were nebulized with an Aerogen Solo active vibrating mesh nebulizer that converted a drug solution into an inhalable aerosol. Three different devices for each time-point were used per clone and results are reported by the device (nebulizer) serial number. In case of device fouling, indicated by longer nebulization times […]

The target in assay [5] is T1, human Gal10-His. The assay is described as follows: SPR slope against calibrators on captured Gal10-His; sample 2 weeks at 37 C.
Assay [6] has as its target T1, human Gal10-His. The assay is described as follows: competition ELISA on coated Gal10-His; hFab 20 ug/mL, competitor g7B07-hFab-Biot, streptavidin-HRP. In short, it runs like this: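 Biotinylated g7B07 humanized Fab at sub-optimal concentration added to Gal10-coated plate pre-incubated with test hFab clones; percentage competition derived with motavizumab hFab set as 0% and g7B07 as 100%. Clone 1D11, binding the opposite Gal10 face including Tyr69, served as non-competing control.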

B1: g23H09 (Fab) (Fab, V domains shown)
VH: EVQLLESGGGLVQPGGSLRLSCAASGFTFRSYDMSWVRQAPGKGLEWVSAIAQFQHWTYYADSVKGRFTISRDNSKNTLYLQMNSLRAEDTAVYYCATTHGIGTLGFGSWGQGTLVTVSS
VL: SYELTQPLSVSVALGQTARITCDGNNIGSKSAQWYQQKPGQAPVLVIYADEYRPEGIPERFSGSNSGNTATLTISRAQAGDEADYYCQVWDGSAAVFGGGTQLTVL
notes: same VH/VL
For B1, in the assay with human Gal10-His [1], the “fold better affinity than g7B07” value was found to be 1.7 fold and the “fold better off-rate than g7B07” value was 1.9 fold. Further, in the assay with human Gal10-His [2], the “kd, fold compared to g7B07 (BLI or SPR)” value was determined as 2.5 fold. Moreover, the “% Relative Activity (RA) on Biacore” value in the assay with human Gal10-His [3] was determined as 98%. Moreover, in the assay with human Gal10-His [4], the “% relative activity by SPR” value was found to be 119%. Moreover, the “% Relative Activity (RA) on Biacore” value in the assay with human Gal10-His [5] is 78%. Further, in the assay with human Gal10-His [6], the “% Competition against g7B07-Biot” value was found to be 94.3% and the “Mean OD value” worked out at 0.31 OD.
